Data from the DeepSol protein solubility set.

Test: soluble on expression in E. coli; label from the status in PepcDB or PDB records

| Sequence | soluble on expression in E. coli |
| --- | --- |
| MSLYAAYAGNLDARLMTRRAPHSPLRATGWLNGWRLTFGGEHMGWEGALATLVEDPISQVFVSLYDIAPMDEDSLDRWEGVGLDIYRRTRVRIHTLDGEEGAWTYVLNAYEGGLPSARYLGEIADAAESSGAPHDYVMELRKRPCLEHHHHHH | not soluble |
| DDPQRVTWPTNAGTIQQALKRGYVVVAAGIRGRTTVDKSGQRVGQAPAFIVDMKAAIRYVKYNQGRLPGDTNRIITNGTSAGGATSALAGASGNSAYFEPALTALGAAPATDDIFAVSAYCPIHNLEHADMAYEWQFNGINDWHRYQPVAGTTKNGRPKFEPVSGQLTVEEQALSLALKAQFSTYLNQLKLTASDGTHLTLNEAGMGSFRDVVRQLLISSAQTAFDQGTDIHKYAGFVVTGNQVTDLDLSAYLKSLTRMKAVPAFDQLDLTSPENNLFGDATAKAKHFTALAQTRSTVTAQLADAELIQAINPLSYLTTTSSRVAKHWRIRHGAADRDTSFAIPIILAIMLENHGYGIDFALPWDIPHSGD | not soluble |
| MGSDKIHHHHHHMDKATTPPEFERRRARAAQYLRMSTERQIYSIDNQRDAIRNYAEVMGYDIVATYEDPGRSGLSILGRPGLKRLIEDIESRRADFETVVVYDVSRWGRFQNTDESASYEYRCQRAGVRIEFCAELFVNDGSIGSDVLKAIKRSMAAEYSRMLSNRVFAGQSRIVKLGFSGGGPAGYGLRRLLVDGSGNPKAILHRDQRKGLASDRVVLVPGPENEVSTVRWIFNQFVKKGKTAVEIASALNARGLVTEFGRPWTGACVGTILASEKYVGNIVWNRISHRLLQNRLRNPPSAFVRADNVIEPLVTRALFDRAQAIRRARTYLRPDEELLADLTKLLKERGRLSSPIIDAAPGCHSASIYAHRFGSMNAAYQLIGYDGSANYRKLDIRRRLIQIRQQTIENLMSDIEGVGGSALYDPQTKIMRVNDEFSVAIWTAQYRMNVTGFPRWPFWKRGLIGPEVTILIRMESDNQTVRDFLIAPAHEAQSALHMLKADNGVRLDAFLFASLDPVVEMARREPMPANI | not soluble |
| MGSDKIHHHHHHMRNMQEKGVSEKEILEELKKYRSLDLKYEDGNIFGSMCSNVLPITRKIVDIFLETNLGDPGLFKGTKLLEEKAVALLGSLLNNKDAYGHIVSGGTEANLMALRCIKNIWREKRRKGLSKNEHPKIIVPITAHFSFEKGREMMDLEYIYAPIKEDYTIDEKFVKDAVEDYDVDGIIGIAGTTELGTIDNIEELSKIAKENNIYIHVDAAFGGLVIPFLDDKYKKKGVNYKFDFSLGVDSITIDPHKMGHCPIPSGGILFKDIGYKRYLDVDAPYLTETRQATILGTRVGFGGACTYAVLRYLGREGQRKIVNECMENTLYLYKKLKENNFKPVIEPILNIVAIEDEDYKEVCKKLRDRGIYVSVCNCVKALRIVVMPHIKREHIDNFIEILNSIKRD | not soluble |
| MAGVKYPGQDPVDLDIYQSSHMVDYQPYRKHKYSRVTPQEQAKLDAQLRDKEFYRPIPNPNPKLTDGYPAFKRPHMTAKDLGLPGFFPSQEHEATREDERKFTSTCHFTYPASHDLHLAQGDPNQVLQSADFPCLVDPKHQPAAEMAKGYLLLPGCPCLHCHIVKVPILNRWGPLMPFYQ | not soluble |
| MLARTIQRFSVVAKRGYAAAAPAANANPEELRLTFASPDTAVFSNAVVKQVDVPTLAGMVGVLANHVPTIGVLKPGVVSVTTNEGTVQRLFVSSGTLSVNIDGSCQVLAEEVLKVEEIDESAARAELDAAQRASGEGSEVARAEAQIRAEVAEALIKAATNQQ | not soluble |
| MAHHHHHHMQVPPLTELSPSISVHLLLGNPSGATPTKLTPDNYLMVKNQYALSYNNSKGTANWVAWQLNSSWLGNAERQDNFRPDKTLPAGWVRVTPSMYSGSGYARGHIAPSADRTKTTEDNAATFLMTNMMPQTPDNNRNTWGNLEDYCRELVSQGKELYIVAGPNGSLGKPLKGKVTVPKSTWKIVVVLDSPGSGLEGITANTRVIAVNIPNDPELNNDWRAYKVSVDELESLTGYDFLSNVSPNIQTSIESKVDN | soluble |
| MMKTLSPLKASLFAILASSTVLVTTVSAEPSQECDHPRSEFHKRGDRMGHDGMHKMFEGLELTDTQKADIKKLFAEQRAARSDDKPTKEERLARRAEMHALITAATFDETQAKALIGAQQEKRQAQAIERMKMQNQIYNLLTPEQQAKFKARFEAHTGKEPRSLEHHHHHH | not soluble |
| MILDRERTTGSLFERMEASSARNRQGGSIHSLRQSIRQNLRNILNTRSGSCRGAPELGIDEPEGAENFRESMSRAIEQCIERYEPRISHAEVQAVVSSASSPLDMTFHITAWVTFNETHEVLEFDMAPNGSQHYRVD | soluble |
| REGMNTIARNLGITCSADIGLISIEYTCFSNNLSYTQVLSLPKTGVNTDKLDQMERFVKEFGNDCSSLTIRQIHNKLDTVQRK | not soluble |
| MGHHHHHHSHMPVTEKDLAEDAPWKKIQQNTFTRWCNEHLKCVNKRIGNLQTDLSDGLRLIALLEVLSQKRMYRKYHQRPTFRQMQLENVSVALEFLDRESIKLVSIDSKAIVDGNLKLILGLVWTLILHYSISMPVWEDEGDDDAKKQTPKQRLLGWIQNKIPYLPITNFNQNWQDGKALGALVDSCAPGLCPDWESWDPQKPVDNAREAMQQADDWLGVPQVITPEEIIHPDVDEHSVMTYLSQFPKAKLKPGAPLKPKL | soluble |
| GKTVSVFGETCATPVGPAAGPHTQLAQNIVTSWLTGGRFIELKTVQILDRLELEKPCIDAEDECFNTEWSTEFTLLKAWDEYLKAWFALHLLEAMFQPSDSGKSFIFNMSVGYNLEGIKQPPMQQFIDNMMDASDHPKFAQYRDALNKLLQNEAFLARHGLQEKRESLQALPARIPTSMVQGVTLSTMHGCPPHEIEAICRYMLEEKGLNTFVKLNPTLLGYARVREILDVCGFGYIGLKEESFDHDLKLTQALEMLERLMALAKEKSLGFGVKLTNTLGTINNKGALPGEEMYMSGRALFPLSINVAAVLSRAFDGKLPISYSGG | not soluble |
| MSLDLLFSECNDEIDNAKLIMKERRFTASYTFAKFSTGSMLLTKDIVGKSGVSIKRLPTELQRKFLFDDVYLDKEIEKVTIEARKSNPYPQISESSLLFKDALDYMEKTSSDYNLWKLSSILFDPVSYPYKTDNDQVKMALLKKERHCRLTSWIVSQIGPEIEEKIRNSSNEIEQIFLYLLLNDVVRASKLAIESKNGHLSVLISYLGSNDPRIRDLAELQLQKWSTGGCSIDKNISKIYKLLSGSPFEGLFSLKELESEFSWLCLLNLTLCYGQIDEYSLESLVQSHLDKFSLPYDDPIGVIFQLYAANENTEKLYKEVRQRTNALDVQFCWYLIQTLRFNGTRVFSKETSDEATFAFAAQLEFAQLHGHSLFVSCFLNDDKAAEDTIKRLVMREITLLRASTNDHILNRLKIPSQLIFNAQALKDRYEGNYLSEVQNLLLGSSYDLAEMAIVTSLGPRLLLSNNPVQNNELKTLREILNEFPDSERDKWSVSINVFEVYLKLVLDNVETQETIDSLISGMKIFYDQYKHCREVAACCNVMSQEIVSKILEKNEGHHHHHH | not soluble |
| MAHHHHHHMRTHKTHAYIQAHCLCDFYLTYCAGWVGAIKADGSGQPREPSNGVFGCVRDYIFHQMLDAVHGSSKVFFCDAHAAAVLNCSLRLHDLMERGVTLLEDLMAPRQPIMSSFTPYFFAVEDACVSCVVEDWMAKVPYRDVHIFALGCAPHRSPQQLPRSRIAPRVMRFKEMMLDFTATEALVFHPNMQNGLPQLLSPLSPPT | not soluble |
| MAHHHHHHMADTEAVAGTEAIPPTQNEQHDSAAKKKQANSYYYWHNHEKERAKVGDVAPMPKPVLLKKSDPSVLPASTASYPITKHSWCDGKKNVTVYIDTKLDEKETMVEDTLQVEFGKRRLTVSYIANVQTSKDVATQRRKQLVLCLAKAIKSKESSYKVKDPSGQIVIRLAKAEETSWWELAKKDGKLSDADDSDEENEGKADEGDGAAEEKA | soluble |
| AESSADKFKRQHMDTEGPSKSSPTYCNQMMKRQGMTKGSCKPVNTFVHEPLEDVQAICSQGQVTCKNGRNNCHKSSSTLRITDCRLKGSSKYPNCDYTTTDSQKHIIIACDGNPYVPVHFDASV | soluble |
| MGSDKIHHHHHHMFNGRPFPVDAFPKIIRNAIYEVEQHTQAPQGLIAASALGVISLACQNRIDVCRLNNLRGPVSLFLMTLAESGERKSTVDKLLMKPLYQLEEDLFEKYTHDLTAWRNDEAIFNIEKKALMSKLKSDIRRNKDHLATNERLKELLTTNPKAPVRFKFLFNDATPAAIKAHLCGHWRSVGIMSDEAGIIFNGYTLNELPFINKMWDGSIFTVERKNEPEKLIRDARITLSLMVQPNVFKGYIDRKGDMAKGIGFFARCLMCQPASTQGNRKISNPIFSNEHLPVFHQRLMEIVNESIIKINENNRICLRFSAEAERHWIEFYNQVESEMRMIGLLYDFKDYASKMAENMARLAALLHYFSGDGGDISVTAVKAAVEIVAWYIEEYIRLFSKKEEFSLDVSEADELYCWIKDYCTQKFSSCIKKNIILQFGPNKFRNRDKANELIRILISQNKIFISSWGKTKIINITHCVF | not soluble |
| MLAIFQKAFAHPPEELNSPASHFSGKTPKLPGETLSDFLSHHQNNAFSMNFGDSAVLAYARQETSLRQRLFCGLDGIYCMFLGRLNNLCTLNRQYGLSGKNSNEAMFVIEAYRTLRDRGPYPADQVLRGLEGSFAFVVYDTQTSSVFSALSSDGGESLYWGISGDGSVVMSDDIQIIKQGCAKSFAPFPNGCMFHSETGLKSFDHPTNMMKAMPRIDSEGVLCGASFKVDACSKINSIPRRGSEANWALANSR | soluble |
| MNKLDTSQLKIASMGGGHGLFQTLRAVRQLNPASIDAIVTVADDGGSSGRIRRELGQIPPGDLRMALAALAPFDDEGLQWETLLQHRFGGHGALAGHAVGNLIIAGLCDTLGSEIAALDAVAKVIKAEGRVLPACAEPLEIAAEVSGLDDDPRIMREVIGQVAVASTPGTVRRVRLIPERPEATEESVEAIENADLVTLGPGSWFSSVIPHVLVPGIPTALATTKALRVVVLNLSPEPGETAGFTAERHIHILSQHAQTLRADVILVDEGLIPHKGERVHLERAAAVLGAQISYHDLSETDPSGRRIHRHDPAKLAEALRLQLLEHHHHHH | soluble |
| MRGSHHHHHHGLVPRGSMKITVLGCGALGQLWLTALCKQGHEVQGWLRVPQPYCSVNLVETDGSIFNESLTANDPDFLATSDLLLVTLKAWQVSDAVKSLASTLPVTTPILLIHNGMGTIEELQNIQQPLLMGTTTHAARRDGNVIIHVANGITHIGPARQQDGDYSYLADILQTVLPDVAWHNNIRAELWRKLAVNCVINPLTAIWNCPNGELRHHPQEIMQICEEVAAVIEREGHHTSAEDLRDYVMQVIDATAENISSMLQDIRALRHTEIDYINGFLLRRARAHGIAVPENTRLFEMVKRKESEYERIGTGLPRPW | soluble |
| SNAMATFMTEDFLLKNDIARTLYHKYAAPMPIYDFHCHLSPQEIADDRRFDNLGQIWLEGDHYKWRALRSAGVDESLITGKETSDYEKYMAWANTVPKTLGNPLYHWTHLELRRPFGITGTLFGPDTAESIWTQCNEKLATPAFSARGIMQQMNVRMVGTTDDPIDSLEYHRQIAADDSIDIEVAPSWRPDKVFKIELDGFVDYLRKLEAAADVSITRFDDLRQALTRRLDHFAACGCRASDHGIETLRFAPVPDDAQLDAILGKRLAGETLSELEIAQFTTAVLVWLGRQYAARGWVMQLHIGAIRNNNTRMFRLLGPDTGFDSIGDNNISWALSRLLDSMDVTNELPKTILYCLNPRDNEVLATMIGNFQGPGIAGKVQFGSGWWFNDQKDGMLRQLEQLSQMGLLSQFVGMLTDSRSFLSYTRHEYFRRILCNLLGQWAQDGEIPDDEAMLSRMVQDICFNNAQRYFTIK | soluble |
